Consider 23 sequences from a protein production outcome set (Wang et al. 2014).

The data set can be described thus: label from the status in PepcDB records.
Take “MKIKATIERVPGGMMIIPLFLGAALNTFAPGTAEFFGGFTGALITGTLPILGVFIFCVGATIDFRSSGYIARKGITLLLGKIGFAALLGVIAAQFIPDDGIQSGFFAGLSVLAIVAVMNETNGGLYLALMNHMGRKEDAGAFAFISTESGPFMTMVTFGVTGLAAFPWETLAATVIPFLLGCILGNLDHDLRDLFSKVVPAIIPFFAFSLGNTLNFGMLIQSGLLGIFIGVSVVILSGSSLFLLDRFIARGDGVAGVAASSTAGAAVAVPYALAEANASFAPVAESATAIIATSVIVTSLLTPLATVWVDKKIKQKKRRTPPPKNQMTIN”: the protein production entry is “failed”.

For “MKILAISGSARRNSTNTAMLQAVRAVAPGEIEISIFDGVGRLPVFSPDLEGESLPEVVRNLIDVIAQSDGVIIASPEYVRSIPGGLKNAIDWLVSGDDIVHKPIALLHASHRGDDMLAGLRTVLATITDRFAGDIFLRLPLMKLEPADVLKAVEAAENRSRVQAYLQAFSAYCMADSKTA”, the protein production result is “failed”.

For the sequence “MKILLIGASGTLGSAVKERLEKKAEVITAGRHSGDVTVDITNIDSIKKMYEQVGKVDAIVSATGSATFSPLTELTPEKNAVTISSKLGGQINLVLLGIDSLNDKGSFTLTTGIMMEDPIVQGASAAMANGAVTAFAKSAAIEMPRGIRINTVSPNVLEESWDKLEPFFEGFLPVPAAKVARAFEKSVFGAQTGESYQVY”, the protein production result is “not failed”.

As to “MKILLKSLVISASLCSPFVLANSEAHSDYLKGTAYLNQDNYKEAITWLTSAANNGSIEAQNKIGTIYAKGIGTEANTQLATQYFLKAAANQSSMAYYNLGKIYESEEKYSTSIDWYNKAIEENNSNAMNNLADLYLHGKGLVQNTHQAELLYIQAAELGNATAMRNLGFLYTNNKEVKQDMSKAYFWFNLAAEKDFPDADKYRDYTGKKLSKSKRIKVQNEALEWLEQHNS”, the protein production entry is given as “failed”.

Turning to “MKILPFIARGTSYYLKMSVKKLVPFLVVGLMLAAGDSVYAYSRGNGSIARGDDYPAYYKNGSQEIDQWRMYSRQCTSFVAFRLSNVNGFEIPAAYGNANEWGHRARREGYRVDNTPTIGSITWSTAGTYGHVAWVSNVMGDQIEIEEYNYGYTESYNKRVIKANTMTGFIHFKDLDGGSVGNSQSSTSTGGTHYFKTKSAIKTEPLASGTVIDYYYPGEKVHYDQILEKDGYKWLSYTAYNGSYRYVQLEAVNKNPLGNSVLSSTGGTHYFKTKSAIKTEPLVSATVIDYYYPGEKVHYDQILEKDGYKWLSYTAYNGSRRYIQLEGVTSSQNYQNQSGNISSYGSHSSSTVGWKKINGSWYHFKSNGSKSTGWLKDGSSWYYLKLSGEMQTGWLKENGLWYYLGSSGAMKTGWYQVSGKWYYSYSSGALAVNTTVDGYRVNSDGERV”, the protein production result was “failed”.

For “MKILTVNVHAWLEENQMEKIDILARTIAEKQYDVIAMQEVNQLMNNKIIFDDIREENYAWVLLETLQKYTDTDYYLHWSNSHIGFGKYNEGVAVITRHKIKAEDEFYCTFAQSVRTISARRIVSITINYEGQDIEFYSCHMNLPNCETEDMGKNIQTILNRTQNSNLKILMGDFNTDAIGNVAAYENILSQGLFDTYVMAEKKDDGITVDKSIHGWDNDKAKKRLDYIFSNKELKVKESKVIFNNKNKEIVSDHFGIEVKIEF”, the protein production result is recorded as “not failed”.

As to “MKIQLDINGTEIQKGVWVGSGAIIEPGAILNPPCVIGDNCRIESGAVIDSLSVIGNNNVIERDSSVKRSVIWDGNYIEYGSKIRGAILCSKTNLKRYVHIFENAIVGDNCLINERVVIKPNIKIWPQKTVEPFAIVDRNIIWGSKLEHHHHHH”, the protein production entry is “failed”.

As to “MKISFSEIIHNALKEDLGDKGDITTNSILINEKVNFAINTRENLVVCGIPILEEVFNMNKEHVKYEIHKKDGDITGKNSTLVSGEALAIYLLPIERVILNFIQHASGIASITRQFVDEVSGTKVKIRSTRKTTPGLRMLDKYSVCIGGGESYRDNLCDGVLIKDNHIASCGSITLAIQRLRKNLKNEYIAIECDNISQVEESLSNNVDMILLDNMSISEIKKAVDIVNGKSVLEVSGCVNIRNVRNIALTGVDYISIGCITNSFQNKDIGLDIEYNNNK”, the protein production entry is “not failed”.

In the case of “MKISIICPLYNAENYIMSLHNKILEQEKPEGTEVEVSYVLTRCKDKTEEMLKNMNLQYTLIEPKDFSHSKTREMMAFKSTGDIIVFISQDVMMKNNFWLKNLVQPIIDGECEASFSRQLCTNNTIEKYIREKNYPEESRVVSKKDINKYGLLTFFYSDASSAVKTSVYKELNGYDNKRLLINEDMYFAEKLIQAGYRIKYCSDSEVYHSHVFTLKSLYERYFDTGVFFRQNSQFLNYKGNKSGKDLAIHVLKRSLEDKNFKVTLNILPNFGARFIGSFLGKKYESLPRSFVMASSMSKKVYSQILEHHHHHH”, the protein production result is on record as “not failed”.

In the case of “MKISLRLAVSSILGAIAYLGLAIWGMGGFSAFFGHPQLTLIAIATLLMVVAALYSEVNLSSGEQEDQGNRWVLPVFGVIGLLSGFVPAYSDRIDFCTFGGEGLRWLGALLFILGGGLRLWPVFILGRRFSGLVAIQPNHRLVVDGLYRHLRNPSYLGLLVNALGWALAFRSGLGLLLAALTLVPLIARIHAEEALLLKHFGKEYEAYCARSWRLLPGLY”, the protein production result is “failed”.

In the case of “MKITGTVVKLGIVSVVLLFFTVMIIVIFGQMRFDRTNGYTAEFSNVSGLRQGQFVRASGVEIGKVKALHLVDGGRRVRVEFNIDRSVPLYQSTTAQIRYSDLIGNRYVELKRGEGKGANDLLPPGGLIPLSRTSPALDLDALIGGFKPVFRALDPAKVNNIANALITVFQGQGGTINDTLDQTAQLTSQIAERDQAIGEVVKNLNIVLDTTVKHRKEFDETVNNLENLITGLRNHSDQLAGGLAHISNGAGTVADLLAENRTLVRKAVSYLDAIQQPVIDQRVELDDLLHKTPTALTALGRANGTYGDFQNFYLCDLQIKWNGFQAGGPVRTVKLFSQPTGRCTPQ”, the protein production entry was “failed”.

For “MKIVSIKIKNYRVFEDIKITNIPSFCVIIGANGTGKSTLFDVFGFLRDALKNNIRQALQIRGGFKEVVTRGKESEDIEIELKFRMEILATERLVTYILIIGQEGKKPVIKREILRYKRGEYGSPFHFLDFHNGQGYAIRNEESFESDEELEREEQKLESADILAIKGLGQFQRFKAANAIRSLIENWHVSDFHISDARGSKAALYAEHLSPTGDNIPIVAQYIYQEHPEIFAEILQRMKQRVPGISNVEAKEIEGGSLILKFQDQAFEDSFVDLYVSDGTIKMFAYLILLFDPKPHPLLCVEEPENQLYPTLLRELAEEFASYAHRGGQVFVSTHSPDFLNAVPLDSIFWLIKIQGVTKVEKAADHEVLRNLIAAGDLPGYLWNQGWFEGVAPLEHHHHHH”, the protein production entry is given as “failed”.

Consider “MKKAGILLLSLLMPFSTAFAEASKPLSVELLWQLKRIGSPVVSSTGEHIIAPVTEYDLKEDKGSTQLWRFDVEGKNNRAITAKGLKVSEPVFSPDGKTLAFISERNDDDAGQIYLLPMDGPGEAAKLTDIPTGVNGIKWVGKHLYFISNIFPEQNWEQMKAQLKTDKDNKVSARQWNALPYSQFDHWLDERRQAHVFRIPATGGTVEAVTQPLGHELPRSSQSSESYDISPDERLIAFSAYGSDNRVDPKLDLFLATIGGNKAENITPENPAPDLNPSFSPNGKTLAFTRQKIPGFYADTARLMLLDVSSRKLTTLTPDWDRSVSEFEWTPDSKGFYASIEDAATNRIYHIDAKSGKAKAITQATDFSQPAIAKDGQLIATNQSFLYPARLVSINPRNGKTERLEQFNDDILKDVDLGTYESVTYKGYQGQDIQMWVHYPPGFDRSKKYPLFMLIHGGPHNAISDGFHYRWNAQTFASWGYVTAWPNFHGSSGFGQDFADAINPDWKNKSLEDVLKATDWFKQQSWIDSDRMVAGGASYGGYLTSIILGQPHPFKALLIHAAVYDMYAQMSADFAVHSTRFGNYWDNPELYKAISPHYFAANFNTPTLVSHGQLDYRVPVGQGFELFRTLQTRNVESRMIYFPDENHWIVKPNNSIYWYNQVKDWMAHYAKPGAQ”, for which the protein production result is “failed”.

“MKKEFSAGGVLFKDGEVLLIKTPSNVWSFPKGNIEPGEKPEETAVREVWEETGVKGEILDYIGEIHYWYTLKGERIFKTVKYYLMKYKEGEPRPSWEVKDAKFFPIKEAKKLLKYKGDKEIFEKALKLKEKFKL”: the protein production entry is on record as “not failed”.

As for “MKKEKIHLEYLLNATSKNILWSAISTPTGLEDWFADKVVSDDKTVTFCWGKTEQRQAGIVAIRAYSFIRFHWLDDENERDYFEIKMSYNELTGDYVLEITDFSEADEADDLKELWDSQVSKLRRTCGFLEHHHHHH”, the protein production result was “not failed”.

Regarding “MKKEYGYPTLKVICQASAGNETAIREILKFYDAYICKLCLRPFYHFESGKITMQVDEELKGQIHIEMMKAILKFEIRVK”, the protein production result is on record as “failed”.

Consider “MKKGAFITQIVIYGLILLASSLIANLVNKIWPAFPMPTPLIGMILLYLLLTFKVVKLEQVAGVSNFFVQFISLIFIPSGIALVTKLDVLKAEGVQIVIVIIVSTLMLLLFTAGIAWVLIQVKEWFIARRTNSNVELEED”, for which the protein production entry is recorded as “failed”.

Regarding “MKKGTDLLKKGFAKMVKHGVVMDVTNVEQAQIAEEAGAVAVMALERVPADIRAAGGVARMSDPALIEEIMDAVSIPVMAKCRIGHTTEALVLEAIGVDMIDESEVLTQADPFFHIYKKKFNVPFVCGARNLGEAVRRIWEGAAMIRTKGEAGTGNIVEAVRHMRLMNEAIAQLQRMTDEEVYGVAKFYANRYAELAKTVREGMGLPATVLENEPIYEGFTLAEIIDGLYEVLLEVKKLGRLPVVNFAAGGVATPADAALMMQLGSDGVFVGSGIFKSENPLERARAIVEATYNYDKPDIVAEVSKNLGEAMKGIDITQISEAEKMQYRGD”, the protein production result is on record as “not failed”.

As for “MKKIAFFIFVILFSVGIYLIWHVLLEKALELKLATSANDLLLKLLAILGVFSMLVLFQGIISSYKKRQLKRILQKIDAMNGFEFEEYSKIFFTSKGFEVSITQKSGDYGADLIIEKDGIKWAVQVKRYSHKVSPKAIQEVVSSKAYYACEKACVITNSYFTQAAQKLAQANEVLLIDRDEWVRFLNEKR”, the protein production result is listed as “failed”.

As to “MKKIEIFDPAMCCSTGVCGPSVDPELIRISVAVNNLKNKGIDVTRYNLASEPDAFANNGVISQLLTDKGPDVLPVTLVDGKVVKEKSHLTNEELTQLTDITEEELSQKPVVRLKLNVKK”, the protein production result is “not failed”.

For the sequence “MKKIIAITGFAMLGGGLREGLSLLVTWPQHFWITCLINIVGAFVLSLITNLLPARLPVSEDIVIGMSVGFVGSFTTFSTFTFETLQSFQSGHSVLALSYVAASLGLGLLAGLAGNFLSTYWLPKEEF”, the protein production entry is given as “failed”.

For “MKKIICYLSLSALSLSSFSQTQIANGDFENWSSSEYCSALDSLDNFLTGQAFFYLNAKNETDAIECPALPFTYKTTDKQSGSYALKLGPQYFDDKAYYNFVTLGEAAYFEEEGSVASFGIPFTGRPSKLTGYYKCTAGAVGDELQIKVFGSNFTSEDPLFYGVFTASENQPMYEKFEIDLVYDPTDPNNAVYLSMLITVGNLNDGSIDENTVAFIDNLVFEYDATAATSYTPVSPIHVFASNKTISFSEHVSDIHVVDMVGANNIQEAASTKTLHAETLNSGLYIVTYNYKGNYFSKKVVIE”, the protein production entry is “failed”.

In the case of “MKKILAICGIELSLIFKKPQNYLIMFAAPLLLTFVFGSMLSGNDDKVRLAIVDQDDTILSQHYIRQLKAHDDMYVFENMSESKASEKLKQKKIAGIIVISRSFQTQLEKGKHPELIFRHGPELSEAPMVKQYAESALATLNIQVTAAKTASQTAGENWKAAYKTVFAKKHEDIVPAVTRQTLSDKKEGAEASDTASRAAGFSILFVMLTMMGAAGTILEARKNGVWSRLLTASVSRAEIGAGYVLSFFVIGWIQFGILLLSTHWLFGINWGNPAAVIVLVSLFLLTVVGIGLMIAANVRTPEQQLAFGNLFVIATCMVSGMYWPIDIEPKFMQSIAEFLPQKWAMSGLTEIIANGARVTDILGICGILLAFAAITFAAGLKALRA”, the protein production result was “failed”.
